From PMC11992174, “Structural Insights into Bortezomib-Induced Activation of the Caseinolytic Chaperone-Protease System in Mycobacterium tuberculosis” (Nature Communications, 2025)

Molecular target: the molecule itself
Assay: cryo-EM structure

B1: MtbClpX^E187Q (enzyme)
chain: not shown
notes: also called Walker B motif mutant MtbClpX
stoichiometry N: 6
